We go through five molecules from patent US20240124536A1, “BASE EDITING OF TRANSTHYRETIN GENE” (Beam Therapeutics Inc., priority 2021, published 2024).

Data set [1] has as its system human TTR gene. Nature of the data set: Editing activity in human primary hepatocytes (gRNA + ABE8.8 mRNA co-transfection, NGS of PCR amplicons). It is filed as cell-based. The conditions noted are these: for Human hepatocytes - Editing %, 625, rep 1 / Human hepatocytes - Editing %, 625, rep 2: 625 ng/RNA/mL; for Human hepatocytes - Editing %, 1250, rep 1 / Human hepatocytes - Editing %, 1250, rep 2: 1250 ng/RNA/mL; for Human hepatocytes - Editing %, 2500, rep 1 / Human hepatocytes - Editing %, 2500, rep 2: 2500 ng/RNA/mL; for editing activity in human primary hepatocytes (in words): ABE8.8 mRNA co-transfection. The text has this: With this example, gRNA sequences were identified that permit ABE8.8 (and other ABE variants containing Streptococcus pyogenes Cas9, such as ABE7.10, or another Cas protein that can use the NGG PAM) to either: 1) disrupt the start codon, or 2) disrupt splice sites, whether donors or acceptors, via A→G editing within its editing window (roughly positions 4 to 7 in the 20-nt protospacer region of DNA). Five sequences were identified throughout the human TTR gene (Table 1). gRNAs were synthesized matching each of the protospacer sequences and otherwise conforming to the standard 100-nt Streptococcus pyogenes CRISPR gRNA sequence, with each gRNA molecule having a minimal degree of chemical modifications (specified in Table 1).
(§1) The mRNA, and corresponding amino acid, sequence of the ABE8.8 (MA004) used in shown below in Table 11. Three days after transfection, genomic DNA was harvested from the hepatocytes, and assessed for base editing with next-generation sequencing of PCR amplicons generated around the target splice site. […] See FIGS. 5A-5C, FIG. 6, and Tables 2-3.

The subject of data set [2] is cynomolgus monkey TTR gene. Put plainly: Editing activity in cyno primary hepatocytes (gRNA + ABE8.8 mRNA transfection, NGS). It is filed as cell-based. As to conditions: for Cyno hepatocytes - Editing %, 156.25: 156.25 ng/RNA/mL; for Cyno hepatocytes - Editing %, 312.5: 312.5 ng/RNA/mL; for Cyno hepatocytes - Editing %, 625: 625 ng/RNA/mL; for Cyno hepatocytes - Editing %, 1250: 1250 ng/RNA/mL; for Cyno hepatocytes - Editing %, 2500: 2500 ng/RNA/mL; for Cyno hepatocytes - Editing %, 5000: 5000 ng/RNA/mL; for editing activity in cynomolgus primary hepatocytes (in words): ABE8.8 mRNA co-transfection.
Text: as §1

The test system of data set [3] is TTR on-target site. Nature of the data set: Off-target validation in human primary hepatocytes: editing at the on-target site. As to conditions: for on-target site editing efficiency (in words): treated vs control, human primary hepatocytes. It is filed as cell-based.
Description: (§2) Several candidate off-target sites were analyzed for off-target editing in human primary hepatocytes.
Data set [4] has as its system potential off-target candidate sites.
Description: With a view towards establishing the safety of a base-editing therapy knocking down of TTR in the human liver in vivo, off-target mutagenesis analysis is assessed in primary human hepatocytes. […] The in vitro biochemical assay ONE-seq was used to generate a list of candidate off-target sites and to determine the propensity of a ribonucleoprotein comprising the ABE8.8 base editor protein and each of the three protospacer guides sequences (GA457, GA460, and GA461) to cleave oligonucleotides in a library.
For human ONE-seq libraries, the reference human genome (GRCh38, Ensembl v98, chromosomes ftp://ftp.ensembl.org/pub/release-98/fasta/homo_sapiens/dna/Homo_sapiens.GRCh38.dna.chromosome.{1-22,X,Y,MT}.fa and ftp://ftp.ensembl.org/pub/release-98/fasta/homo_sapiens/dna/Homo_sapiens.GRCh38.dna.nonchromosomal.fa), was searched for potential off-target sites with up to 6 mismatches to the protospacer sequence above, and sites with up to 4 mismatches plus up to 2 DNA or RNA bulges, using Cas-Designer v1.2 (http://www.rgenome.net/cas-designer/).
For each site, the total number of edited reads was normalized to the total number of edited reads assigned to the on-target site, and this ratio defines the ONE-seq score for the site. Sites were ranked by ONE-seq score, and those with a score equal to or larger than 0.001, were selected for validation. A score equal to or larger than 0.001 encompasses sites that have down to 1000-fold less editing activity in the biochemical assay compared to editing of the on-target site. This threshold is based on the premise that in cells, if there is 10000 on-target editing, 1/1000-fold less editing activity would translate to % 0.1% off-target editing, which falls below the lower limit of detection of editing by NGS.
as §2

Strand notation (5' to 3'): a small letter for the sugar, then the base; units joined by * are phosphorothioate-linked, units joined directly phosphodiester-linked; [ ] holds rarer units or linkages, { } end groups; capitals alone tell only the bases. m = 2'-O-methyl; r = 2'-OH (RNA)

B1: GA461: Human/Cyno TTR guide RNA, spacer UACUCACCUCUGCAUGCUCA, gRNA SEQ ID NO: 15 (nucleic acid)
guide: TACTCACCTCTGCATGCTCAGTTTTAGAGCTAGAAATAGCAAGTTAAAATAAGGCTAGTCCGTTATCAACTTGAAAAAGTGGCACCGAGTCGGTGCTTTT
modifications: chemistry not given here
In the case of B1, in data set [1], the “Human hepatocytes - Editing %, 625, rep 1” value is 21.81%; the “Human hepatocytes - Editing %, 625, rep 2” value was 22.31%; the “Human hepatocytes - Editing %, 1250, rep 1” value worked out at 32.82%; the “Human hepatocytes - Editing %, 1250, rep 2” value is 32.38%. Also, in data set [1], the “Human hepatocytes - Editing %, 2500, rep 1” value is 40.42%; the “Human hepatocytes - Editing %, 2500, rep 2” value worked out at 39.43%; the “editing activity in human primary hepatocytes (in words)” value is “high editing activity”. Further, in data set [2], the “Cyno hepatocytes - Editing %, 156.25” value is recorded as 0.07%; the “Cyno hepatocytes - Editing %, 312.5” value was 7.45%; the “Cyno hepatocytes - Editing %, 625” value was determined as 13.16%; the “Cyno hepatocytes - Editing %, 1250” value is recorded as 19.46%. Moreover, in data set [2], the “Cyno hepatocytes - Editing %, 2500” value came out at 29.8%; the “Cyno hepatocytes - Editing %, 5000” value came out at 37.53%; the “editing activity in cynomolgus primary hepatocytes (in words)” value was “high editing activity”. Also, the “SUM Editing % - Human Primary Hepatocytes, Treat rep 2” value (from here on “SUM Editing % … Treat rep 2”) in data set [3] (On-target TACTCACCTCTGCATGCTCA) worked out at 58.9%. In data set [3], the “on-target site editing efficiency (in words)” value is recorded as “high editing efficiency”. Moreover, the “off-target editing at candidate off-target sites (in words)” value (from here on “off-target editing”) in data set [4] is given as “little to no off-target editing”.

B2: GA458: Cyno TTR guide RNA, cynomolgus equivalent of GA457, spacer GCCAUCCUGCCAAGAACGAG, gRNA SEQ ID NO: 29 (nucleic acid)
guide: mG*mC*mC*rArUrCrCrUrGrCrCrArArGrArArCrGrArGrGrUrUrUrUrArGrArGrCrUrArGrArArArUrArGrCrArArGrUrUrArArArArUrArArGrGrCrUrArGrUrCrCrGrUrUrArUrCrArArCrUrUrGrArArArArArGrUrGrGrCrArCrCrGrArGrUrCrGrGrUrGrCrU*mU*mU*mU
Regarding B2, in data set [2], the “Cyno hepatocytes - Editing %, 156.25” value came to 6.06%; the “Cyno hepatocytes - Editing %, 312.5” value was 10.65%; the “Cyno hepatocytes - Editing %, 625” value is listed as 16.07%; the “Cyno hepatocytes - Editing %, 1250” value worked out at 22.74%. Besides, in data set [2], the “Cyno hepatocytes - Editing %, 2500” value was 27.25%; the “Cyno hepatocytes - Editing %, 5000” value is 35.91%; the “editing activity in cynomolgus primary hepatocytes (in words)” value was “high editing activity”.

B3: GA459: Human TTR guide RNA, spacer GCAACUUACCCAGAGGCAAA, gRNA SEQ ID NO: 13 (nucleic acid)
guide: GCAACTTACCCAGAGGCAAAGTTTTAGAGCTAGAAATAGCAAGTTAAAATAAGGCTAGTCCGTTATCAACTTGAAAAAGTGGCACCGAGTCGGTGCTTTT
modifications: chemistry not given here
Turning to B3, in data set [1], the “Human hepatocytes - Editing %, 625, rep 1” value amounted to 3.79%; the “Human hepatocytes - Editing %, 625, rep 2” value is listed as 3.89%; the “Human hepatocytes - Editing %, 1250, rep 1” value is listed as 5.46%; the “Human hepatocytes - Editing %, 1250, rep 2” value is recorded as 6.15%. For the same molecule, in data set [1], the “Human hepatocytes - Editing %, 2500, rep 1” value was 8.5% and the “Human hepatocytes - Editing %, 2500, rep 2” value turned out to be 8.69%. In data set [3] (On-target GCAACTTACCCAGAGGCAAA), the “SUM Editing % - Human Primary Hepatocytes, Treat rep 1” value is given as 14.17% and the “SUM Editing % … Treat rep 2” value is 14.29%. The “on-target site editing efficiency (in words)” value in data set [3] is recorded as “high editing efficiency”. Further, in data set [4], the “off-target editing” value is recorded as “little to no off-target editing”.

B4: GA460: Human/Cyno TTR guide RNA, spacer UAUAGGAAAACCAGUGAGUC, gRNA SEQ ID NO: 14 (nucleic acid)
guide: TATAGGAAAACCAGTGAGTCGTTTTAGAGCTAGAAATAGCAAGTTAAAATAAGGCTAGTCCGTTATCAACTTGAAAAAGTGGCACCGAGTCGGTGCTTTT
modifications: chemistry not given here
B4: in data set [1], the “Human hepatocytes - Editing %, 625, rep 1” value is on record as 23.77%; the “Human hepatocytes - Editing %, 625, rep 2” value amounted to 22.27%; the “Human hepatocytes - Editing %, 1250, rep 1” value is listed as 38.33%; the “Human hepatocytes - Editing %, 1250, rep 2” value amounted to 35.8%. For the same molecule, in data set [1], the “Human hepatocytes - Editing %, 2500, rep 1” value worked out at 47.61%; the “Human hepatocytes - Editing %, 2500, rep 2” value is listed as 47.79%; the “editing activity in human primary hepatocytes (in words)” value was “high editing activity”. In data set [2], the “Cyno hepatocytes - Editing %, 156.25” value worked out at 1.62%; the “Cyno hepatocytes - Editing %, 312.5” value was 11.22%; the “Cyno hepatocytes - Editing %, 625” value is given as 18.44%; the “Cyno hepatocytes - Editing %, 1250” value turned out to be 31.71%. In addition, in data set [2], the “Cyno hepatocytes - Editing %, 2500” value is 38.25%; the “Cyno hepatocytes - Editing %, 5000” value is given as 40.16%; the “editing activity in cynomolgus primary hepatocytes (in words)” value is “high editing activity”. In data set [3] (On-target TATAGGAAAACCAGTGAGTC), the “SUM Editing % - Human Primary Hepatocytes, Treat rep 1” value is reported as 76.4% and the “SUM Editing % … Treat rep 2” value is recorded as 74.3%. In addition, the “on-target site editing efficiency (in words)” value in data set [3] is listed as “high editing efficiency”. In data set [4], the “off-target editing” value is “little to no off-target editing”.

B5: GA457: Human TTR guide RNA, spacer GCCAUCCUGCCAAGAAUGAG, gRNA SEQ ID NO: 11 (nucleic acid)
guide: GCCATCCTGCCAAGAATGAGGTTTTAGAGCTAGAAATAGCAAGTTAAAATAAGGCTAGTCCGTTATCAACTTGAAAAAGTGGCACCGAGTCGGTGCTTTT
modifications: chemistry not given here
On to B5, for which, in data set [1], the “Human hepatocytes - Editing %, 625, rep 1” value stood at 17.24%; the “Human hepatocytes - Editing %, 625, rep 2” value turned out to be 15.39%; the “Human hepatocytes - Editing %, 1250, rep 1” value is 26.49%; the “Human hepatocytes - Editing %, 1250, rep 2” value is given as 24.86%. Moreover, in data set [1], the “Human hepatocytes - Editing %, 2500, rep 1” value is recorded as 33.96%; the “Human hepatocytes - Editing %, 2500, rep 2” value stood at 31.31%; the “editing activity in human primary hepatocytes (in words)” value is “high editing activity”. Besides, in data set [3] (On-target GCCATCCTGCCAAGAATGAG), the “% Editing - human primary hepatocytes, Net” value turned out to be 54.1% and the “% Editing - human primary hepatocytes, Treated” value is listed as 54.21%. For the same molecule, the “on-target site editing efficiency (in words)” value in data set [3] was “high editing efficiency”. In addition, the “off-target editing” value in data set [4] was “little to no editing”. Besides, in data set [4] (47 candidate off-target sites, human primary hepatocytes), the “net editing at all off-target sites” value is reported as “less than 0.40”.
